One data set addresses NEMO UBAN (aa 257–364) (human, UniProt Q9Y6K9 257-364). The experiment in a line: pull-down.
The target of data set [1] is K6 diUb phosphorylated on S65 of the proximal Ub (UniProt P0CG47, K6R). Description: pull-down.
Data set [2] concerns the target K6 diUb phosphorylated on S65 of the distal Ub (UniProt P0CG47, K6R). Description: pull-down.
Data set [3] has as its target K6 diUb phosphorylated on S65 of both Ub molecules (UniProt P0CG47, K6R). The experiment in a line: pull-down.
Data set [4] addresses M1-linked diubiquitin (UniProt P0CG47). Description: crystal structure.
Data set [5] shares this target. Description: pull-down.
The data set “crystal structure” concerns the molecule itself. The experiment in a line: crystal structure.

In the case of RGRWACQSCTFENEAAAVLCSICERPRLA (domain or fragment) [His6-SUMO-HOIP NZF1 (aa 351–379)], the binding result with NEMO UBAN (aa 257–364) was “binds”.

B1: GST-tagged TAB2 NZF (aa 585–693) (domain or fragment)
chain: QIPSLEEMQQLRSCNRQLQIDIDCLTKEIDLFQARGPHFNPSAIHNFYDNIGFVGPVPPKPKDQRSIIKTPKTQDTEDDEGAQWNCTACTFLNHPALIRCEQCEMPRHF
Take B1: the binding result in data set [1], in data set [2] and in data set [3] was “binds” in each case. Turning to RGRWACQSCTFENEAAAVLCSICERPRLA (domain or fragment) [HOIP NZF1 (aa 351–379), as crystallised], in the data set with M1-linked diubiquitin [4], the binding result was “binds”.

B2: NEMO UBAN (257–364) K285C/C347S chemically ubiquitinated on K285C with Ub G76C (other)
chain 1: GMQLEDLKQQLQQAEEALVAKQEVIDKLCEEAEQHKIVMETVPVLKAQADIYKADFQAERQAREKLAEKKELLQEQLEQLQREYSKLKASSQESARIEDMRKRHVEVS
chain 2: […]
B2: the binding result in the data set with M1-linked diubiquitin [5] is given as “binds”.

B3: OPTN UBAN (aa 419–512) C472S, S473E (domain or fragment)
chain: DRAVLKELSEKLELAEKALASKQLQMDEMKQTIAKQEEDLETMTILRAQMEVYSEDFHAERAAREKIHEEKEQLALQLAVLLKENDAFEDGGRQ
As to B3, in “crystal structure”, the binding result was “binds”.

The values above are taken from article PMC11372445 (Cell Reports, 2024).
